The results in this text go back to patent publication WO2020219978A1.

In assay [1] the target is cynomolgus BCMA (cyno-BCMA), as used in SPR (cynomolgus monkey). Put plainly: SPR. A general note: Surface plasmon resonance follows binding to a sensor surface in real time, without labels.
The target in assay [2] is BCMA on the BCMA+ cell lines (NCI-H929, L363, JJN-3, RPMI-8226, HEK293T-huBCMA, HEK293T-cynoBCMA). In words: flow cytometry on BCMA+ cell lines. For orientation: A flow cytometer gives signals particle by particle.

Sequence of cynomolgus BCMA (cyno-BCMA), as used in SPR (cynomolgus monkey) (chain, as listed by the source): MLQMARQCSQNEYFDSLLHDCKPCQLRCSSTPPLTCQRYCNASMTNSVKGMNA

The substance “CC-93269, bispecific trivalent anti-BCMA/anti-CD3 T cell engaging antibody (TCE) (bispecific antibody)” had a fold higher affinity than to rodent BCMA in assay [1] of 10 fold. Also, the EC50 (as a rule, the concentration giving half of the maximal effect) in assay [2] lay in the range of 3.4 to 15.2 nM.
